In assay [1] the target is T1, TROP2 on BxPC-3 and MDA-MB-231-KWL cells (human, UniProt P09758 27-323).
T1 construct: whole, on cells
T1 sequence (looked up): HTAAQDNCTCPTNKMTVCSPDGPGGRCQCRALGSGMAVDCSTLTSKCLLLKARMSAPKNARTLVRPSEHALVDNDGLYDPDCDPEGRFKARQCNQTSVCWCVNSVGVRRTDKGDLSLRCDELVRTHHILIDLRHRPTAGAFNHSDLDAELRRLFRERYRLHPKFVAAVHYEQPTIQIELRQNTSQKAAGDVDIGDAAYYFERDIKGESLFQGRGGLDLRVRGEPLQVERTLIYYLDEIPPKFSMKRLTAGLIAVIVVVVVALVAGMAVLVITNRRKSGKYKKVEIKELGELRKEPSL
Nature of the assay: on-cell ELISA, BxPC-3 cells (TROP2 high). Details: unit not given beside the values. The method, then: (§1) Cells were plated in duplicate onto 96-well plates, and primary antibody was diluted in cell culture medium with a starting concentration of 30 μg/mL (200 nM) with a dilution factor of 1:5. […] Data was plotted and analyzed. EC50 ([…]) was measured along with area under the curve (AUC) for each cell line.

For assay [2], the target named is T1, TROP2 on BxPC-3 and MDA-MB-231-KWL cells. Nature of the assay: on-cell ELISA, BxPC-3 vs MDA-MB-231-KWL cells. The method, then: as §1
Background: ELISA stands for enzyme-linked immunosorbent assay.

The target is the same in assay [3]. Nature of the assay: on-cell ELISA, MDA-MB-231-KWL cells (TROP2 low). Further details: unit not given beside the values. The method, then:
as §1

B1: Sacituzumab (antibody, human IgG1, kappa, V domains shown)
VH: QVQLQQSGSELKKPGASVKVSCKASGYTFTNYGMNWVKQAPGQGLKWMGWINTYTGEPTYTDDFKGRFAFSLDTSVSTAYLQISSLKADDTAVYFCARGGFGSSYWYFDVWGQGSLVTVSS
VL: DIQLTQSPSSLSASVGDRVSITCKASQDVSIAVAWYQQKPGKAPKLLIYSASYRYTGVPDRFSGSGSGTDFTLTISSLQPEDFAVYYCQQHYITPLTFGAGTKVEIKR
notes: also called mAb (parental)
B1: the “AUC (BxPC-3)” value in assay [1] came out at 318. Besides, the ΔAUC in assay [2] turned out to be 70.1. The “AUC (MDA-MB-231-KWL)” value in assay [3] is 248.

B2: mAb_Lm_H91Y_HC (antibody, human IgG1, kappa)
heavy: not shown
light: DIQLTQSPSSLSASVGDRVSITCKASQDVSIAVAWYQQKPGKAPKLLIYSASYRYTGVPDRFSGSGSGTDFTLTISSLQPEDFAVYYCQQYYITPLTFGAGTKVEIKRTVAAPSVFIFPPSDEQLKSGTASVVCLLNNFYPREAKVQWKVDNALQSGNSQESVTEQDSKDSTYSLSSTLTLSKADYEKHKVYACEVTHQGLSSPVTKSFNRGEC
As for B2, the “AUC (BxPC-3)” value in assay [1] is 184. Also, in assay [3], the “AUC (MDA-MB-231-KWL)” value was 16.9.

B3: mAb_LC_Hm_F108S (antibody, human IgG1, kappa)
heavy: not shown
light: DIQLTQSPSSLSASVGDRVSITCKASQDVSIAVAWYQQKPGKAPKLLIYSASYRYTGVPDRFSGSGSGTDFTLTISSLQPEDFAVYYCQQHYITPLTFGAGTKVEIKRTVAAPSVFIFPPSDEQLKSGTASVVCLLNNFYPREAKVQWKVDNALQSGNSQESVTEQDSKDSTYSLSSTLTLSKADYEKHKVYACEVTHQGLSSPVTKSFNRGEC
Regarding B3, in assay [1], the “AUC (BxPC-3)” value turned out to be 303. Also, the ΔAUC in assay [2] amounted to 76.1. Moreover, the “AUC (MDA-MB-231-KWL)” value in assay [3] worked out at 227.

B4: mAb_LC_Hm_F101E (antibody, human IgG1, kappa)
heavy: not shown
light: DIQLTQSPSSLSASVGDRVSITCKASQDVSIAVAWYQQKPGKAPKLLIYSASYRYTGVPDRFSGSGSGTDFTLTISSLQPEDFAVYYCQQHYITPLTFGAGTKVEIKRTVAAPSVFIFPPSDEQLKSGTASVVCLLNNFYPREAKVQWKVDNALQSGNSQESVTEQDSKDSTYSLSSTLTLSKADYEKHKVYACEVTHQGLSSPVTKSFNRGEC
On to B4, for which the “AUC (BxPC-3)” value in assay [1] is 300. Moreover, in assay [2], the ΔAUC turned out to be 142. Also, the “AUC (MDA-MB-231-KWL)” value in assay [3] worked out at 158.

B5: mAb_LC_Hm_F101T (antibody, human IgG1, kappa)
heavy: not shown
light: DIQLTQSPSSLSASVGDRVSITCKASQDVSIAVAWYQQKPGKAPKLLIYSASYRYTGVPDRFSGSGSGTDFTLTISSLQPEDFAVYYCQQHYITPLTFGAGTKVEIKRTVAAPSVFIFPPSDEQLKSGTASVVCLLNNFYPREAKVQWKVDNALQSGNSQESVTEQDSKDSTYSLSSTLTLSKADYEKHKVYACEVTHQGLSSPVTKSFNRGEC
As for B5, the “AUC (BxPC-3)” value in assay [1] is 314. Further, the ΔAUC in assay [2] worked out at 93.1. The “AUC (MDA-MB-231-KWL)” value in assay [3] was found to be 221.

B6: mAb_LC_Hm_S104D (antibody, human IgG1, kappa)
heavy: not shown
light: DIQLTQSPSSLSASVGDRVSITCKASQDVSIAVAWYQQKPGKAPKLLIYSASYRYTGVPDRFSGSGSGTDFTLTISSLQPEDFAVYYCQQHYITPLTFGAGTKVEIKRTVAAPSVFIFPPSDEQLKSGTASVVCLLNNFYPREAKVQWKVDNALQSGNSQESVTEQDSKDSTYSLSSTLTLSKADYEKHKVYACEVTHQGLSSPVTKSFNRGEC
As for B6, in assay [1], the “AUC (BxPC-3)” value was 285. The ΔAUC in assay [2] is 178.

B7: mAb_Lm_V29R_HC (antibody, human IgG1, kappa)
heavy: not shown
light: DIQLTQSPSSLSASVGDRVSITCKASQDRSIAVAWYQQKPGKAPKLLIYSASYRYTGVPDRFSGSGSGTDFTLTISSLQPEDFAVYYCQQHYITPLTFGAGTKVEIKRTVAAPSVFIFPPSDEQLKSGTASVVCLLNNFYPREAKVQWKVDNALQSGNSQESVTEQDSKDSTYSLSSTLTLSKADYEKHKVYACEVTHQGLSSPVTKSFNRGEC
For B7, the “AUC (BxPC-3)” value in assay [1] was determined as 291. The ΔAUC in assay [2] was determined as 80.5.

B8: mAb_LC_Hm_F108T (antibody, human IgG1, kappa)
heavy: not shown
light: DIQLTQSPSSLSASVGDRVSITCKASQDVSIAVAWYQQKPGKAPKLLIYSASYRYTGVPDRFSGSGSGTDFTLTISSLQPEDFAVYYCQQHYITPLTFGAGTKVEIKRTVAAPSVFIFPPSDEQLKSGTASVVCLLNNFYPREAKVQWKVDNALQSGNSQESVTEQDSKDSTYSLSSTLTLSKADYEKHKVYACEVTHQGLSSPVTKSFNRGEC
On to B8, for which the “AUC (BxPC-3)” value in assay [1] came out at 278. In addition, in assay [2], the ΔAUC was 71.4. In assay [3], the “AUC (MDA-MB-231-KWL)” value was determined as 207.

B9: mAb_Lm_Y53R_HC (antibody, human IgG1, kappa)
heavy: not shown
light: DIQLTQSPSSLSASVGDRVSITCKASQDVSIAVAWYQQKPGKAPKLLIYSASRRYTGVPDRFSGSGSGTDFTLTISSLQPEDFAVYYCQQHYITPLTFGAGTKVEIKRTVAAPSVFIFPPSDEQLKSGTASVVCLLNNFYPREAKVQWKVDNALQSGNSQESVTEQDSKDSTYSLSSTLTLSKADYEKHKVYACEVTHQGLSSPVTKSFNRGEC
In the case of B9, the “AUC (BxPC-3)” value in assay [1] stood at 323. The molecule also came in with a ΔAUC in assay [2] of 143.

B10: mAb_LC_Hm_F108Q (antibody, human IgG1, kappa)
heavy: not shown
light: DIQLTQSPSSLSASVGDRVSITCKASQDVSIAVAWYQQKPGKAPKLLIYSASYRYTGVPDRFSGSGSGTDFTLTISSLQPEDFAVYYCQQHYITPLTFGAGTKVEIKRTVAAPSVFIFPPSDEQLKSGTASVVCLLNNFYPREAKVQWKVDNALQSGNSQESVTEQDSKDSTYSLSSTLTLSKADYEKHKVYACEVTHQGLSSPVTKSFNRGEC
For the molecule B10, the “AUC (BxPC-3)” value in assay [1] turned out to be 324. In assay [2], this molecule returned a ΔAUC of 94.9. The “AUC (MDA-MB-231-KWL)” value in assay [3] is 230.

B11: mAb_Lm_Y92N_HC (antibody, human IgG1, kappa)
heavy: not shown
light: DIQLTQSPSSLSASVGDRVSITCKASQDVSIAVAWYQQKPGKAPKLLIYSASYRYTGVPDRFSGSGSGTDFTLTISSLQPEDFAVYYCQQHNITPLTFGAGTKVEIKRTVAAPSVFIFPPSDEQLKSGTASVVCLLNNFYPREAKVQWKVDNALQSGNSQESVTEQDSKDSTYSLSSTLTLSKADYEKHKVYACEVTHQGLSSPVTKSFNRGEC
Consider B11, for which the “AUC (BxPC-3)” value in assay [1] stood at 226. The same molecule had a ΔAUC in assay [2] of 181.

B12: mAb_Lm_Y53P_HC (antibody, human IgG1, kappa)
heavy: not shown
light: DIQLTQSPSSLSASVGDRVSITCKASQDVSIAVAWYQQKPGKAPKLLIYSASPRYTGVPDRFSGSGSGTDFTLTISSLQPEDFAVYYCQQHYITPLTFGAGTKVEIKRTVAAPSVFIFPPSDEQLKSGTASVVCLLNNFYPREAKVQWKVDNALQSGNSQESVTEQDSKDSTYSLSSTLTLSKADYEKHKVYACEVTHQGLSSPVTKSFNRGEC
notes: built from the Sacituzumab light chain with the named substitution
Turning to B12, the “AUC (BxPC-3)” value in assay [1] came to 304. The molecule further registered a ΔAUC in assay [2] of 134.

B13: mAb_LC_Hm_F29G (antibody, human IgG1, kappa)
heavy: not shown
light: DIQLTQSPSSLSASVGDRVSITCKASQDVSIAVAWYQQKPGKAPKLLIYSASYRYTGVPDRFSGSGSGTDFTLTISSLQPEDFAVYYCQQHYITPLTFGAGTKVEIKRTVAAPSVFIFPPSDEQLKSGTASVVCLLNNFYPREAKVQWKVDNALQSGNSQESVTEQDSKDSTYSLSSTLTLSKADYEKHKVYACEVTHQGLSSPVTKSFNRGEC
Regarding B13, the “AUC (BxPC-3)” value in assay [1] was found to be 291. In addition, in assay [2], the ΔAUC is 71.9. Further, in assay [3], the “AUC (MDA-MB-231-KWL)” value amounted to 219.

B14: mAb_LC_Hm_G33I (antibody, human IgG1, kappa)
heavy: not shown
light: DIQLTQSPSSLSASVGDRVSITCKASQDVSIAVAWYQQKPGKAPKLLIYSASYRYTGVPDRFSGSGSGTDFTLTISSLQPEDFAVYYCQQHYITPLTFGAGTKVEIKRTVAAPSVFIFPPSDEQLKSGTASVVCLLNNFYPREAKVQWKVDNALQSGNSQESVTEQDSKDSTYSLSSTLTLSKADYEKHKVYACEVTHQGLSSPVTKSFNRGEC
With B14, the “AUC (BxPC-3)” value in assay [1] was 286. Moreover, the ΔAUC in assay [2] came to 156. In addition, the “AUC (MDA-MB-231-KWL)” value in assay [3] is 129.

The values are drawn from patent publication US20240358847A1 (Merck Sharp & Dohme, published 2024).
